These results are taken from PMC4003248 (The Journal of Cell Biology, 2014).

Assay [1] addresses RILP (Rab7-interacting lysosomal protein) 1-185 (UniProt Q96NA2). Description: GST-RILP 1-185 pull-down from cell lysate. Particulars: reference: GFP-LIC1 wild type; sites T213.
For assay [2], the target named is adenovirus serotype 5 hexon capsid subunit (Ad5 (adenovirus serotype 5), UniProt P04133 1-952). Description: pull-down.
Sequence of adenovirus serotype 5 hexon capsid subunit (P04133 whole entry): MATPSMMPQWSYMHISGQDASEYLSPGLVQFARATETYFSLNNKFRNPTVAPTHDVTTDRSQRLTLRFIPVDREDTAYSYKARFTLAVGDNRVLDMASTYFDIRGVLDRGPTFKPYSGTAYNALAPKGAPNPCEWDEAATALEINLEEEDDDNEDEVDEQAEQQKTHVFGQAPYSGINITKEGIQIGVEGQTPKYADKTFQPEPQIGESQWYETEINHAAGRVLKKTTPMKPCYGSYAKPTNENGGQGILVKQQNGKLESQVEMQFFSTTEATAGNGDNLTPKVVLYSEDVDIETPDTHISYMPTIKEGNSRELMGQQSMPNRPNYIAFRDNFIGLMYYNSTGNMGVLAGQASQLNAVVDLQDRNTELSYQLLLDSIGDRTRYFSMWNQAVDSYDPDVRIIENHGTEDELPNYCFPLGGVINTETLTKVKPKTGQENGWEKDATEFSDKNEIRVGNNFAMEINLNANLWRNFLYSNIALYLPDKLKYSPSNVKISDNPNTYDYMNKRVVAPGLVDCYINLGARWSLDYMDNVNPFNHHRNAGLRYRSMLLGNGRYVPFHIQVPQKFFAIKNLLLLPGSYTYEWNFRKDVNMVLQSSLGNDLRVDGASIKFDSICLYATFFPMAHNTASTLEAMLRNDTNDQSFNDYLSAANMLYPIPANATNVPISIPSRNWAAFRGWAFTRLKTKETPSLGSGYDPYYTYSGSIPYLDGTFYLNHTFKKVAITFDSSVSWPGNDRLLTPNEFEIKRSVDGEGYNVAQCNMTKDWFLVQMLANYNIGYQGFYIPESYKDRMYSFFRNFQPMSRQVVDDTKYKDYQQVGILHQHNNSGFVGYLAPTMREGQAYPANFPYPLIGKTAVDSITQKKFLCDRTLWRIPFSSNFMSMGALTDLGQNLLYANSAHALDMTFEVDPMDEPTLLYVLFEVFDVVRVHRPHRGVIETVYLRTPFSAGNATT

Regarding “dynein light intermediate chain 1 (LIC1) (from UniProt Q9QXU8) GFP-LIC1-T213A”, the “binding against the reference” value in assay [1] is “stronger”.

B1: bacterially expressed full-length IC1A phosphorylated with PKA catalytic subunit (natural protein, rat, UniProt Q63100 1-643, looked up)
chain: MSDKSDLKAELERKKQRLAQIREEKKRKEEERKKKEADMQQKKEPVPDDSDLDRKRRETEALLQSIGISPEPPLVQPLHFLTWDTCYFHYLVPTPMSPSSKSVSTPSEAGSQDDLGPLTRTLQWDTDPSVLQLQSDSELGRRLNKLGVSKVTQVDFLPREVVSYSKETQTPLATHQSEEDEEDEEMVEPKVGHDSELENQDKKQETKEAPPRELTEEEKQQILHSEEFLIFFDRTIRVIERALAEDSDIFFDYSGRELEEKDGDVQAGANLSFNRQFYDEHWSKHRVVTCMDWSLQYPELMVASYSNNEDAPHEPDGVALVWNMKFKKTTPEYVFHCQSSVMSVCFARFHPNLVVGGTYSGQIVLWDNRSHRRTPVQRTPLSAAAHTHPVYCVNVVGTQNAHNLITVSTDGKMCSWSLDMLSTPQESMELVYNKSKPVAVTGMAFPTGDVNNFVVGSEEGTVYTACRHGSKAGIGEVFEGHQGPVTGINCHMAVGPIDFSHLFVTSSFDWTVKLWTTKHNKPLYSFEDNADYVYDVMWSPVHPALFACVDGMGRLDLWNLNSDTEVPTASVAIEGAYALNRVRWAQGGKEVAVGDSEGRIWIYDVGELAVPHNDEWTRFARTLVEIRANRADSEEEGAVELAA
modifications: phosphorylated by PKA (the paper names IC1-T59 as the sole PKA site)
On to B1, for which the binding result in assay [2] is listed as “binds”.

B2: bacterially expressed LIC1-T213D (natural protein, rat, UniProt Q9QXU8 1-523, looked up)
chain: MAAVGRVGSFGSSPPGLASTYASGPLANELASGSGGPAAGDDEDGQNLWSRILREVSTRSRSKLPTGKNVLLLGEDGAGKTSLIRRIQGIEEYKKGRGLEYLYLNVHDEDRDDQTRCNVWILDGDLYHKGLLKFSLDALSLRDTLVMLVVDMSKPWTALDSLQKWASVVREHVDKLKIPPEEMKEMEQKLIRDFQEYVEPGEDFPASPQRRADAAQEDRDDSVVLPLGADTLTHNLGLPVLVVCTKCDAISVLEKEHDYRDEHFDFIQSHIRKFCLQYGAALIYTSVKENKNIDLVYKYIVQKLYGFPYKIPAVVVEKDAVFIPAGWDNDKKIGILHENFQTLKIEDNFEDIITKPPVRKFVHEKEIMAEDDQVFLMKLQSLLAKQPPTAAGRPVDASPRVPGGSPRTPNRSVSSNVASVSPIPAGSKKIDPNMKAGATSEGVLANFFNSLLSKKTGSPGGPGVGGSPGGGAAGASTSLPPSAKKSGQKPVLSDVHAELDRITRKPASVSPTTPPSPTEGEAS
For the molecule B2, the binding result in assay [2] was “binds”.

B3: bacterially expressed full-length LIC1 phosphorylated with PKA catalytic subunit (natural protein, rat, UniProt Q9QXU8 1-523, looked up)
chain: MAAVGRVGSFGSSPPGLASTYASGPLANELASGSGGPAAGDDEDGQNLWSRILREVSTRSRSKLPTGKNVLLLGEDGAGKTSLIRRIQGIEEYKKGRGLEYLYLNVHDEDRDDQTRCNVWILDGDLYHKGLLKFSLDALSLRDTLVMLVVDMSKPWTALDSLQKWASVVREHVDKLKIPPEEMKEMEQKLIRDFQEYVEPGEDFPASPQRRATAAQEDRDDSVVLPLGADTLTHNLGLPVLVVCTKCDAISVLEKEHDYRDEHFDFIQSHIRKFCLQYGAALIYTSVKENKNIDLVYKYIVQKLYGFPYKIPAVVVEKDAVFIPAGWDNDKKIGILHENFQTLKIEDNFEDIITKPPVRKFVHEKEIMAEDDQVFLMKLQSLLAKQPPTAAGRPVDASPRVPGGSPRTPNRSVSSNVASVSPIPAGSKKIDPNMKAGATSEGVLANFFNSLLSKKTGSPGGPGVGGSPGGGAAGASTSLPPSAKKSGQKPVLSDVHAELDRITRKPASVSPTTPPSPTEGEAS
modifications: phosphorylated by PKA; T213 identified as the major PKA site
B3: the binding result in assay [2] is listed as “binds”.
